These results are taken from patent US20130064825A1 (Amgen, published 2013).

The labels stand for the following.
B1: 21B12, anti-PCSK9 huIgG4 (antibody, V domains shown)
VH: QVQLVQSGAEVKKPGASVKVSCKASGYTLTSYGISWVRQAPGQGLEWMGWVSFYNGNTNYAQKLQGRGTMTTDPSTSTAYMELRSLRSDDTAVYYCARGYGMDVWGQGTTVTVSS
VL: QSALTQPASVSGSPGQSITISCTGTSSDVGGYNSVSWYQQHPGKAPKLMIYEVSNRPSGVSNRFSGSKSGNTASLTISGLQAEDEADYYCNSYTSTSMVFGGGTKLTVLQ
notes: also called 21B12.1; 21B12 IgG4
B2: mouse PCSK9, 8xHIS tagged (enzyme, UniProt Q80W65 35-694, looked up)
chain: QDEDGDYEELMLALPSQEDGLADEAAHVATATFRRCSKEAWRLPGTYIVVLMEETQRLQIEQTAHRLQTRAARRGYVIKVLHIFYDLFPGFLVKMSSDLLGLALKLPHVEYIEEDSFVFAQSIPWNLERIIPAWHQTEEDRSPDGSSQVEVYLLDTSIQGAHREIEGRVTITDFNSVPEEDGTRFHRQASKCDSHGTHLAGVVSGRDAGVAKGTSLHSLRVLNCQGKGTVSGTLIGLEFIRKSQLIQPSGPLVVLLPLAGGYSRILNAACRHLARTGVVLVAAAGNFRDDACLYSPASAPEVITVGATNAQDQPVTLGTLGTNFGRCVDLFAPGKDIIGASSDCSTCFMSQSGTSQAAAHVAGIVARMLSREPTLTLAELRQRLIHFSTKDVINMAWFPEDQQVLTPNLVATLPPSTHETGGQLLCRTVWSAHSGPTRTATATARCAPEEELLSCSSFSRSGRRRGDWIEAIGGQQVCKALNAFGGEGVYAVARCCLVPRANCSIHNTPAARAGLETHVHCHQKDHVLTGCSFHWEVEDLSVRRQPALRSRRQPGQCVGHQAASVYASCCHAPGLECKIKEHGISGPSEQVTVACEAGWTLTGCNVLPGASLTLGAYSVDNLCVARVHDTARADRTSGEATVAAAICCRSRPSAKASWVQ
notes: also called mPCSK9-8xHIS; mPCSK9; not shown: 8xHIS tag
B3: 11F1, anti-PCSK9 antibody (antibody, V domains shown)
VH: EVQLVESGGGLVQPGGSLRLSCAASGFTFSNYWMSWVRQAPGKGLEWVASIKQDGSEKYYVDSVKGRFAISRDNAKNSLFLQMNSLRAEDTAVYYCARDLVLMVYDIDYYYYGMDVWGQGTTVTVSS
VL: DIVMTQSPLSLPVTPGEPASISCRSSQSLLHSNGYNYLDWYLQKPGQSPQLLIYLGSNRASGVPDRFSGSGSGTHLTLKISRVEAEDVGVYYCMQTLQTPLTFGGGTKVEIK
notes: it was detected with anti-human Fc
B4: 16F12, anti-PCSK9 huIgG4 (antibody, V domains shown)
VH: QVHLVESGGGVVQPGRSLRLSCAASGFTFNSFGMHWVRQAPGKGLEWVALIWSDGSDEYYADSVKGRFTISRDNSKNTLYLQMNSLRAEDTAVYYCARAIAALYYYYGMDVWGQGTTVTVSS
VL: QSVLTQPPSVSAAPGQKVTISCSGSSSNIGNNFVSWYQQLPGTAPKLLIYDYNKRPSGIPDRFSGSKSGTSATLGITGLQTGDEADYYCGTWDSSLSAYVFGTGTRVTVLQ
notes: also called 16F12.1

Assay [1] deals with B2. The assay is described as follows: SPR (Biacore 2000), antibody amine-coupled on CM5 chip, PCSK9 injected, pH 7.4; BIAcore (Table 7.1), not the assay of Table 8.2.
The target of assay [2] is B2. The assay can be described thus: Biacore solution equilibrium assay: PCSK9 mixed with 21B12.1, free PCSK9 read on immobilised 21B12. On the technique in general: Surface plasmon resonance follows binding to a sensor surface in real time, without labels.
The target in another assay is T1, 31H4, anti-PCSK9 huIgG4.
T1 construct: also called 31H4.1; 31H4 IgG4
T1 sequence (VL, as listed by the source, chain 2 of 2, other chains not shown): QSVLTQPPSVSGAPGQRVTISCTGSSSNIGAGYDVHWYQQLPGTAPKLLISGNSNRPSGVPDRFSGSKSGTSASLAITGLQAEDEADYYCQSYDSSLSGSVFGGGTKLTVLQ
The assay can be described thus: KinExA; mPCSK9 is varied, 31H4 is fixed at 100 pM; free 31H4.1 measured. (In KinExA the mixture passes briefly over coated beads that capture the unbound partner.)

The assay “16F12, anti-PCSK9 huIgG4” addresses B4. The assay can be described thus: KinExA; mPCSK9 is varied, 16F12 is fixed at 100 pM; free 16F12 measured.
The target in assay [3] is T2, human PCSK9 (proprotein convertase subtilisin/kexin type 9), wild type (human, UniProt Q8NBP7 31-692).
T2 construct: also called hPCSK9; WT PCSK9
The assay is described as follows: competition ELISA: biotinylated WT PCSK9 (100 ng/mL) pre-incubated with 11F1, binding to captured LDLR.

The target of assay [4] is T2, human PCSK9 (proprotein convertase …). The assay can be described thus: competition ELISA: biotinylated WT PCSK9 (100 ng/mL) pre-incubated with 11F1, binding to captured LDLR; average of 3. In general terms: An ELISA detects its analyte on a solid surface through an enzyme-linked reagent.
For assay [5], the target named is T3, human PCSK9 D374Y mutant (human, UniProt Q8NBP7 31-692, biotinylated (sites not given) in the ELISA formats).
T3 construct: also called D374Y PCSK9; huPCSK9 (D374Y)
The assay is described as follows: blocking ELISA: biotinylated D374Y PCSK9 (20 ng/mL) pre-incubated with 11F1, added to plate-captured LDLR; blocked ligand LDLR; streptavidin-HRP, OD450.

The target of assay [6] is T3, human PCSK9 D374Y mutant. The assay is described as follows: competition ELISA: biotinylated D374Y PCSK9 (20 ng/mL) pre-incubated with 11F1, binding to captured LDLR.
In assay [7] the target is T3, human PCSK9 D374Y mutant. The assay is described as follows: competition ELISA: biotinylated D374Y PCSK9 (20 ng/mL) pre-incubated with 11F1, binding to captured LDLR; average of 3.
Assay [8] deals with T2, human PCSK9 (proprotein convertase …). The assay can be described thus: blocking ELISA: biotinylated WT PCSK9 (100 ng/mL) pre-incubated with 11F1, added to plate-captured LDLR; blocked ligand LDLR; streptavidin-HRP, OD450.
The target is the same in assay [9]. The assay is described as follows: cell-based or functional assay.
For assay [10], the target named is T3, human PCSK9 D374Y mutant. The assay is described as follows: cell-based or functional assay.
The next assay concerns the target furin (R&D Systems) (UniProt P09958 108-715, limits assumed). The assay can be described thus: competition ELISA: 0.4 ug/mL 11F1 pre-incubated with soluble proprotein convertase (furin inhibitor present), then added to plate-captured biotinylated PCSK9; OD450.
Assay [11] deals with B2. The assay can be described thus: SPR (Biacore 2000), antibody amine-coupled on CM5 chip, PCSK9 injected, pH 7.4.
The target of assay [12] is B2. The assay can be described thus: KinExA solution equilibrium titration; title: 100pM 16F12 + (1pM ~ 10nM) mPCSK9.

Sequence of furin (R&D Systems) (P09958 108-715 limits assumed): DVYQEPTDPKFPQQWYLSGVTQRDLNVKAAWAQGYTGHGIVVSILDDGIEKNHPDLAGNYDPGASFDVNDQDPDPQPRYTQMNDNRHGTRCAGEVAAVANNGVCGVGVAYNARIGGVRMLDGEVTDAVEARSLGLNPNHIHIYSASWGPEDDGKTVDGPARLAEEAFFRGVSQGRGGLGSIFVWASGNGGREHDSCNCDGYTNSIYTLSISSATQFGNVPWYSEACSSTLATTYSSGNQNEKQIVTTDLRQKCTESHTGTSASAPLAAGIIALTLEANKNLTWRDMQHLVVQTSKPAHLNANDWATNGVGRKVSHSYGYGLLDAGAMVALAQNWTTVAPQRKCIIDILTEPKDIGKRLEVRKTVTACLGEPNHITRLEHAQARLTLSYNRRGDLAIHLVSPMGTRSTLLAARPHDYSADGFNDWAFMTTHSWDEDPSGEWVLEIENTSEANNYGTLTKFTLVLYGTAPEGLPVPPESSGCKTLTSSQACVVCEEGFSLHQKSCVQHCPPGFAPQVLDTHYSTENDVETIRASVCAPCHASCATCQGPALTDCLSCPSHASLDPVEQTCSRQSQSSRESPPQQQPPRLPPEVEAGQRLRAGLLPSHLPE

The Kd is the constant that tells how readily two partners part at equilibrium. B1: the Kd was 460 nM in assay [1] and 17 nM in assay [2].

With B2, the “IC50 (read off the curve)” value in the assay with 31H4, anti-PCSK9 huIgG4 is about 600 pM; with 16F12, anti-PCSK9 huIgG4, about 400 pM.

For orientation: IC50 means the concentration needed to halve the response being measured. For the molecule B3, the IC50 in [3] is 4.4 to 8.1 nM; in assay [4], 5.9 nM; in the assay with human PCSK9 D374Y mutant [6], 7.3 to 10.1 nM; with human PCSK9 D374Y mutant [7], 9.1 nM. In addition, the “IC50 (read off the curve)” value with human PCSK9 D374Y mutant [5] was about 10 nM; in assay [8] it was about 5 nM. Besides, the “EC50, LDL uptake in HepG2 cells (BODIPY-LDL)” value in assay [9] amounted to 124 nM; in the assay with human PCSK9 D374Y mutant [10] it was 35.3 nM. Further, the binding result with furin (R&D Systems) is recorded as “no binding (tested: 20 ug/ml)”.

Take B4: the figures for the Kd in assay [11] and in [12] were 6.4 nM and 0.223 nM, respectively.
